Results published in US20260266828A1, “BIOMARKERS FOR PREDICTING CANCER TREATMENT EFFICACY” (Arcus Biosciences, Inc., priority 2023, published 2026).

Tested on: metastatic (Stage IV) squamous or non-squamous NSCLC
Assay: PFS in serum cytokine selected subsets of the trial of Example 2
Format: in vivo, human
Conditions: median
Protocol: Soluble biomarkers were retrospectively analyzed in baseline and on-treatment peripheral blood derived samples obtained from a subset of subjects enrolled in the clinical trial of Example 2. Baseline samples were obtained on day 1 of cycle 1 (CID1), prior to administration of any study drugs. On-treatment samples were obtained on day 1 of cycle 2 (C2D1), prior to administration of study drugs on that day.
Blood collected in serum separator tubes was allowed to clot for 30-60 minutes before centrifugation at 1300 g for 10 minutes to separate the serum. Serum was isolated and stored at −80° C. until cytokine analysis. Serum cytokines were quantified in multiplex assays using the Meso Scale Discovery platform following the manufacturer's protocol. Briefly, plates were coated with biotinylated capture antibodies specific to the analyte of interest bound to linkers specific to unique spots in each well of a 96-well plate. Serum samples, assessed in duplicate, were diluted 8-fold to quantify CXCL9, CXCL10, CXCL11 and IL-18 in a U-plex assay, diluted 10-fold to quantify IL-12B in a U-plex assay, and diluted 5-fold to quantify IFNγ, TNFα and IL-6 in the S-plex assay. Samples were incubated on linker/capture antibody-coated plates, followed by detection with a sulfo-tag-labelled antibody for the U-plex assays and a TURBO-tag-labelled antibody for the S-plex assay. For the S-plex assay, additional steps incorporated in the manufacturer's protocol to amplify signal with enhance solution and detection solution were followed. Following addition of read buffer, the electrochemiluminescent signal was measured on a MESO Sector S 600 instrument. Between each step of the protocol plates were washed with 0.05% Tween-PBS. A standard curve was generated for each plate using a 4-parameter logistic fit with 1/y^2 weighting. Cytokine concentrations in samples were interpolated using the standard curve, allowing quantification of the analyte of interest. Fold change from baseline was calculated as a ratio of the cytokine concentration at C2D1 over the cytokine concentration at baseline. A linear mixed model performed on log transformed raw cytokine values with baseline values as covariates assessed the difference in cytokine levels over time and between treatment groups.
Kaplan-Meier survival plots using progression-free survival data and cytokine concentrations were generated in the Jmp software, and hazard ratios were calculated between patient groups of interest. Comparisons were made for each analyte between zimberelimab monotherapy and domvanalimab combination groups both at baseline and using the fold change at C2D1 using median values to stratify patients in to low and high cytokine groups. Stratifying subjects by baseline cytokine expression (e.g., CXCL9, CXCL10, CXCL11, LL-6, TNFα) around the median value (high vs. low) enriched for clinical benefit with the addition of domvanalimab. Baseline reference values derived from the biomarker evaluable population (BEP) are as follows (high is ≥reference value, and low is <reference value): CXCL9: 278.7 pg/mL; CXCL10: 445.4 pg/mL; CXCL11:104.2 pg/mL; L-6: 15550 fg/mL; TNFα: 1194 fg/mL. Induction reference values derived from the BEP are as follows (high is ≥reference value, and low is <reference value): CXCL9: 1.76 fold change; CXCL10: 1.52 fold change; […]: 1.14 fold change IL-18: 1.1 fold change; IFNγ: 1.23 fold change.

B1: zimberelimab (antibody, chains of the INN, looked up, V domains shown)
VH: QLQLQESGPGLVKPSETLTLTCTVSADSISSTTYYWVWIRQPPGKGLEWIGSISYSGSTYYNPSLKSRVTVSVDTSKNQFSLKLNSVAATDTALYYCARHLGYNGRYLPFDYWGQGTLVTVSS
VL: QSALTQPASVSGSPGQSITISCTGTSSDVGFYNYVSWYQQHPGKAPELMIYDVSNRPSGVSDRFSGSKSGNTASLTISGLQAEDEADYYCSSYTSISTWVFGGGTKLTVL
notes: zimberelimab monotherapy 360 mg IV Q3W; anti-PD-1 antibody
PFS (BEP (fold change from baseline to C2D1)): 5.7 mo | PFS (BEP for cytokine analysis (baseline samples)): 5.6 mo | PFS (CXCL9 High Induction at C2D1 (≥1.76 fold change)): 2.7 mo | PFS (CXCL9 High at Baseline (≥278.7 pg/mL)): 4 mo | PFS (CXCL9 Low Induction at C2D1 (<1.76 fold change)): 9.7 mo | PFS (CXCL9 Low at Baseline (<278.7 pg/mL)): 7.6 mo | PFS (CXCL10 High Induction at C2D1 (≥1.52 fold change)): 2.7 mo | PFS (CXCL10 High at Baseline (≥445.4 pg/mL)): 5.4 mo | PFS (CXCL10 Low Induction at C2D1 (<1.52 fold change)): 11.7 mo | PFS (CXCL10 Low at Baseline (<445.4 pg/mL)): 7.6 mo | PFS (CXCL11 High at Baseline (≥104.2 pg/mL)): 4.9 mo | PFS (CXCL11 Low at Baseline (<104.2 pg/mL)): 5.6 mo | PFS (IFNγ High Induction at C2D1 (≥1.23 fold change)): 4.5 mo | PFS (IFNγ Low Induction at C2D1 (<1.23 fold change)): 11.7 mo | PFS (IL-6 High at Baseline (≥15550 fg/mL)): 1.8 mo | PFS (IL-6 Low at Baseline (<15550 fg/mL)): 9.6 mo | PFS (IL-12B High Induction at C2D1 (≥1.14 fold change)): 9.6 mo | PFS (IL-12B Low Induction at C2D1 (<1.14 fold change)): 2.5 mo | PFS (IL-18 High Induction at C2D1 (≥1.1 fold change)): 5.7 mo | PFS (IL-18 Low Induction at C2D1 (<1.1 fold change)): 4.5 mo | PFS (TNFα High at Baseline (≥1194 fg/mL)): 3.5 mo | PFS (TNFα Low at Baseline (<1194 fg/mL)): 5.7 mo
